From the supplement of paper PMC12783771
± gives the standard deviation of the averaged measurements.

B1: library; numbered along this chain (parent)
chain: MNIQIGELAKRTACPVVTIRFYEQEGLLPPPGRSRGNFRLYGEEHVERLQFIRHCRSLDMPLSDVRTLLSYRKRPDQDCGEVNMLLDEHIRQVESRIGALLELKHHLVELREACSGARPAQSCGILQGLSDCVCDTRGTTAHPSD

Key:
[1] = variants of: B1; assay: sfGFP reporter fluorescence (15 h) (µM FITC); higher = higher leak; conditions: library round: Round 0; ligand: none
Method in brief: (§1)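 Linear PbrR templates were made by PCR, normalized to 5 nM with an Echo, and expressed in BL21 Star (DE3) PANOx-SP extract with the pPbrR-sfGFP reporter plasmid and 30 μg/mL GamS. Echo-assembled 1 μL reactions held 1 µM lead chloride, 30 µM zinc acetate or no metal and were incubated 15 hr at 30 °C. Endpoint sfGFP fluorescence was read on a Synergy Neo2 and expressed as µM FITC using standard curves. Up to three biological replicates were run.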

[2] = variants of: B1; assay: sfGFP reporter fluorescence (15 h) (µM FITC); higher = stronger transcriptional activation; conditions: library round: Round 0
Method in brief: as §1

Variant: MNIQIGELAKRTACPVVTIRFYEQEGLLPPPGRSRGNFRLYGEEHVERLQFIRHCRSLDLNLSDVRTLLSYRKRPDQDCGEVNMLLDEHIRQVESRIGALLELKHHCVELREACSGARPAQSCGILQILSDCVCDTRGTTAHPSD
- sfGFP reporter fluorescence [1]: 1.87 ± 0.42
- sfGFP reporter fluorescence ([2]; ligand: 1 µM Pb): 3.58 ± 0.081
- sfGFP reporter fluorescence ([2]; ligand: 30 µM Zn): 4.97 ± 0.23

Variant: MNIQIGELAKRTACPVVTIRFYEQEGLLPPPGRSRGNFRLYGEEHVERLQFIRHCRSLDLNLSDVRTLLSYRKRPDQDCGEVNMLLDEHIRQVESRIGALLELKHHCVELREACSGARPAQSCGILQMLSDCVCDTRGTTAHPSD
- sfGFP reporter fluorescence [1]: 3.38 ± 0.74
- sfGFP reporter fluorescence ([2]; ligand: 1 µM Pb): 4.14 ± 0.57
- sfGFP reporter fluorescence ([2]; ligand: 30 µM Zn): 5.5 ± 0.2

Variant: MNIQIGELAKRTACPVVTIRFYEQEGLLPPPGRSRGNFRLYGEEHVERLQFIRHCRSLDNPLSDVRTLLSYRKRPDQDCGEVNMLLDEHIRQVESRIGALLELKHHLVELREACSGARPAQSCGILQGLSDCVCDTRGTTAHPSD
- sfGFP reporter fluorescence [1]: 0.0616 ± 0.001
- sfGFP reporter fluorescence ([2]; ligand: 1 µM Pb): 0.0607 ± 0.0018
- sfGFP reporter fluorescence ([2]; ligand: 30 µM Zn): 0.061 ± 0.0013

Variant: MNIQIGELAKRTACPVVTIRFYEQEGLLPPPGRSRGNFRLYGEEHVERLQFIRHCRSLDPPLSDVRTLLSYRKRPDQDCGEVNMLLDEHIRQVESRIGALLELKHHLVELREACSGARPAQSCGILQGLSDCVCDTRGTTAHPSD
- sfGFP reporter fluorescence [1]: 0.0605
- sfGFP reporter fluorescence ([2]; ligand: 1 µM Pb): 0.05974 ± 0.00052
- sfGFP reporter fluorescence ([2]; ligand: 30 µM Zn): 0.05516 ± 0.00026

Variant: MNIQIGELAKRTACPVVTIRFYEQEGLLPPPGRSRGNFRLYGEEHVERLQFIRHCRSLDQPLSDVRTLLSYRKRPDQDCGEVNMLLDEHIRQVESRIGALLELKHHLVELREACSGARPAQSCGILQGLSDCVCDTRGTTAHPSD
- sfGFP reporter fluorescence [1]: 0.0603 ± 0.00078
- sfGFP reporter fluorescence ([2]; ligand: 1 µM Pb): 0.0588 ± 0.0018
- sfGFP reporter fluorescence ([2]; ligand: 30 µM Zn): 0.0614 ± 0.0013

Variant: MNIQIGELAKRTACPVVTIRFYEQEGLLPPPGRSRGNFRLYGEEHVERLQFIRHCRSLDRPLSDVRTLLSYRKRPDQDCGEVNMLLDEHIRQVESRIGALLELKHHLVELREACSGARPAQSCGILQGLSDCVCDTRGTTAHPSD
- sfGFP reporter fluorescence [1]: 0.0614 ± 0.0034
- sfGFP reporter fluorescence ([2]; ligand: 1 µM Pb): 0.0612 ± 0.001
- sfGFP reporter fluorescence ([2]; ligand: 30 µM Zn): 0.0619 ± 0.0015

Variant: MNIQIGELAKRTACPVVTIRFYEQEGLLPPPGRSRGNFRLYGEEHVERLQFIRHCRSLDSPLSDVRTLLSYRKRPDQDCGEVNMLLDEHIRQVESRIGALLELKHHLVELREACSGARPAQSCGILQGLSDCVCDTRGTTAHPSD
- sfGFP reporter fluorescence [1]: 0.0601
- sfGFP reporter fluorescence ([2]; ligand: 1 µM Pb): 0.0608 ± 0.001
- sfGFP reporter fluorescence ([2]; ligand: 30 µM Zn): 0.0592 ± 0.00078

Variant: MNIQIGELAKRTACPVVTIRFYEQEGLLPPPGRSRGNFRLYGEEHVERLQFIRHCRSLDTPLSDVRTLLSYRKRPDQDCGEVNMLLDEHIRQVESRIGALLELKHHLVELREACSGARPAQSCGILQGLSDCVCDTRGTTAHPSD
- sfGFP reporter fluorescence [1]: 0.0601 ± 0.001
- sfGFP reporter fluorescence ([2]; ligand: 1 µM Pb): 0.0621 ± 0.00078
- sfGFP reporter fluorescence ([2]; ligand: 30 µM Zn): 0.0645 ± 0.001

Variant: MNIQIGELAKRTACPVVTIRFYEQEGLLPPPGRSRGNFRLYGEEHVERLQFIRHCRSLDVPLSDVRTLLSYRKRPDQDCGEVNMLLDEHIRQVESRIGALLELKHHLVELREACSGARPAQSCGILQGLSDCVCDTRGTTAHPSD
- sfGFP reporter fluorescence [1]: 0.0715 ± 0.0015
- sfGFP reporter fluorescence ([2]; ligand: 1 µM Pb): 0.1459 ± 0.001
- sfGFP reporter fluorescence ([2]; ligand: 30 µM Zn): 1.05 ± 0.012

Variant: MNIQIGELAKRTACPVVTIRFYEQEGLLPPPGRSRGNFRLYGEEHVERLQFIRHCRSLDWPLSDVRTLLSYRKRPDQDCGEVNMLLDEHIRQVESRIGALLELKHHLVELREACSGARPAQSCGILQGLSDCVCDTRGTTAHPSD
- sfGFP reporter fluorescence [1]: 0.135 ± 0.0096
- sfGFP reporter fluorescence ([2]; ligand: 1 µM Pb): 0.384 ± 0.026
- sfGFP reporter fluorescence ([2]; ligand: 30 µM Zn): 0.926 ± 0.01

Variant: MNIQIGELAKRTACPVVTIRFYEQEGLLPPPGRSRGNFRLYGEEHVERLQFIRHCRSLDYPLSDVRTLLSYRKRPDQDCGEVNMLLDEHIRQVESRIGALLELKHHLVELREACSGARPAQSCGILQGLSDCVCDTRGTTAHPSD
- sfGFP reporter fluorescence [1]: 0.0621 ± 0.0013
- sfGFP reporter fluorescence ([2]; ligand: 1 µM Pb): 0.0662 ± 0.0013
- sfGFP reporter fluorescence ([2]; ligand: 30 µM Zn): 0.12 ± 0.00078

Variant: MNIQIGELAKRTACPVVTIRFYEQEGLLPPPGRSRGNFRLYGEEHVERLQFIRHCRSLDMALSDVRTLLSYRKRPDQDCGEVNMLLDEHIRQVESRIGALLELKHHLVELREACSGARPAQSCGILQGLSDCVCDTRGTTAHPSD
- sfGFP reporter fluorescence [1]: 0.0665 ± 0.00078
- sfGFP reporter fluorescence ([2]; ligand: 1 µM Pb): 0.108
- sfGFP reporter fluorescence ([2]; ligand: 30 µM Zn): 1.22 ± 0.092

Variant: MNIQIGELAKRTACPVVTIRFYEQEGLLPPPGRSRGNFRLYGEEHVERLQFIRHCRSLDMCLSDVRTLLSYRKRPDQDCGEVNMLLDEHIRQVESRIGALLELKHHLVELREACSGARPAQSCGILQGLSDCVCDTRGTTAHPSD
- sfGFP reporter fluorescence [1]: 0.0755 ± 0.001
- sfGFP reporter fluorescence ([2]; ligand: 1 µM Pb): 0.193 ± 0.0083
- sfGFP reporter fluorescence ([2]; ligand: 30 µM Zn): 1.78 ± 0.031

Variant: MNIQIGELAKRTACPVVTIRFYEQEGLLPPPGRSRGNFRLYGEEHVERLQFIRHCRSLDMDLSDVRTLLSYRKRPDQDCGEVNMLLDEHIRQVESRIGALLELKHHLVELREACSGARPAQSCGILQGLSDCVCDTRGTTAHPSD
- sfGFP reporter fluorescence [1]: 0.0729
- sfGFP reporter fluorescence ([2]; ligand: 1 µM Pb): 0.123 ± 0.0044
- sfGFP reporter fluorescence ([2]; ligand: 30 µM Zn): 0.709 ± 0.02
